Legend:
[1] = Western blot of 293T-EmGFP lysates; settings: glycan lost; control: wild type
[2] = co-transfection of WT and mutant, 293T-EmGFP syncytia; settings: glycan lost; control: WT syncytin-2 plus empty vector
[3] = syncytia formation in 293T-EmGFP cells, 36 h; settings: glycan lost; control: wild type

| Substance | expression_or_secretion [1] | other: fusogenic activity of co-expressed wild type [2] | other: fusogenic activity, other: fusion score (−, +, ++) [3] |
| --- | --- | --- | --- |
| syncytin-2: N133Q | no change | decreases | – |
| syncytin-2: N146Q | no change | – | no change |
| syncytin-2: N177Q | no change | – | no change |
| syncytin-2: N220Q | no change | – | no change |
| syncytin-2: N241Q | no change | – | no change |
| syncytin-2: N247Q | no change | – | no change |
| syncytin-2: N332Q | no change | – | increases |
| syncytin-2: N443Q | no change | decreases | – |

From PMC4853038
